The values below come from patent publication US20240043504A1 (published 2024).

Sequences and labels used below:
B1: mAb10935 (antibody, V domains shown)
VH: EVQLVESGGGLVQPGGSLRLSCAASGFTVSSNYMSWVRQAPGKGLEWVSLIYSGGSTYYADSVKGRFTISRHNSKNTLYLQMNSLRSEDTAVYYCARVPLGDYYYGMDVWGQGTTVTVSS
VL: DIQMTQSPSSLSASVGDRVTITCQASQDINKYLNWYQQKPGKAPKLLIYDASNLETGVPSRFSGSGSGTDFTFTISSLQPEDIATYYCQQSDNLPLTFGGGTKVEIKR
B2: mAb10955 (antibody, V domains shown)
VH: EVQLVESGGGLVQPGGSLRVSCAASGFTVSRNYMSWVRQAPGKGLEWVSVIYSGGSTFYADSVKGRFTISRDNSKNTLYLQMNSLRAEDTAIYYCARYIPRFDPWGQGTLVTVSS
VL: DIQMTQSPSSLSASVGDRVTITCQASQDISNYLNWFQQKPGRAPKLLIYDASNLETGVPSRFSGSGSGTDFTFTISSLQPEDIATYYCQQYDNLPITFGQGTRLEIKR
B3: mAb10967 (antibody, V domains shown)
VH: EVQLVESGGGLVQPGGSLRLSCAASGFTVSSNYMSWVRQAPGKGLEWVSVIYPGGSTFYADSVKGRFTISRDNSKNTLYLQMNSLRAEDTAVYYCARDQRDFAWGQGTLVTVSS
VL: DIQMTQSPSSLSASVGDRVTITCQASQDISNYLNWYQQKPGKAPKLLIYDASNLETGVPSRFSGSGSGTDFTFTISGLQPEDIATYYCQQYDNLPPTFGQGTRLEIKR
B4: mAb10938 (antibody, V domains shown)
VH: EVQLVESGGGLVQPGGSLRLSCAVSGFTVSSNYMSWVRQAPGKGLEWVSLIYSGGSTFYADSVKGRFTISRHNSKNTLYLQMNSLRAEDTAVYYCAREGGYSYDYNYWGQGTLVTVSS
VL: DIQMTQSPSSLSASVGDRVTITCQASQDIRNYLNWYQQKPGKAPKLLIYDASNLETGVPSRFSGIGSGTDFTFTISSLQPEDIATYYCQQYDNLPITFGQGTRLEIKR
B5: mAb10954 (antibody, V domains shown)
VH: EVQLVESGGGLVQPGGSLRLSCAASGITVSSNYMSWVRQAPGKGLEWVSLIYSGGSTYYADSVKGRFTISRDNSKNTLYLQMNSLRVEDTAVYYCARDHGMAAAGYNYWGQGTLVTVSS
VL: DIQMTQSPSSLSASVGDRVTITCQASQDINKYLNWYQQKPGKAPKLLIYDASNLETGVPSRFSGSGSGTDFTFTINSLQPEDFATYFCQQYDNLPPAFGQGTKVEIKR
B6: mAb10937 (antibody, V domains shown)
VH: QITLKESGPTLVKPTQTLTLTCTFSGFSLSTNVVGVGWIRQPPGKALEWLALIYWNDDKRYSPSLKSRLTITKDTSKNQVVLTMTNMDPVDTATYYCAHGPTGDYFDYWGQGTLVTVSS
VL: not shown
B7: mAb10969 (antibody, V domains shown)
VH: QVQLVESGGGVVQPGRSLRLSCAASGFTFSSYAMHWVRQAPGKGLEWVAVISYDGSNKYYADSVKGRFTISRDNSKNTLYLQMNSLRAEDTAVYYCARDGRTITMVRGVIDDAFDIWGQGTMVTVSS
VL: not shown
B8: mAb10964 (antibody, V domains shown)
VH: QVQLQESGPGLVKPSETLSLTCTVSGGSINNYYWIWIRQPPGKGLEWIGYIYHSGSTNYNPSLKSRVTISVDTSKNQFSLKVSSVTAADTAVYYCANMVRGVYEDDYWGQGTLVTVSS
VL: DIQMTQSPSSLSASVGDRVTITCRASQSISNYLNWYQQKPGKAPKLLIFAASSLRSGVPSRFSGSGSGTDFTLTISSLHPEDFATYYCQQNYNTPLTFGPGTKVDIKR
B9: mAb10936 (antibody, V domains shown)
VH: QVQLVESGGGVVQPGRSLRLSCAASGFTFRNYGMHWVRQAPGKGLEWVSVIWYDGSNRYYADSVKGRFTISRDTSKNTLYLQMNSLRAEDTAVYYCARDPPITGTTGGDAFDIWGQGTMVTVSS
VL: not shown
B10: mAb10939 (antibody, V domains shown)
VH: EVQLVESGGGLVQPGGSLRLSCAASGLTVSSNYMNWVRQVPGKGLEWVSVIYSGGSKFYVDSVKGRFTISRHNSKNTLYLQMNSLRPEDTAVYYCTRDAQYYGMDVWGQGTTVTVSS
VL: DIQMTQSPSSLSASVGDRVTITCRASQSISTYLHWYQQKPGEAPKLLIYAASSLQSGVPSRFSGSGSGTDFTLTISSLQPEDFATYYCQQSYSTPPEIFGQGTKLEIKR
B11: mAb10956 (antibody, V domains shown)
VH: EVQLVESGGGLVQPGGSLRLSCAASGLTVSSNYMSWVRQAPGKGLEWVSVIYSGGSTFYADSVKGRFTISRDNSKNTLYLQMNSLRAEDTAVYYCARDLIKYGMDVWGQGTTVTVSS
VL: not shown
B12: mAb10998 (antibody, V domains shown)
VH: EVQLVESGGGLVHPGGSLRLSCAASGLTVSSNYMSWVRQAPGKGLEWVSVIYSGGSTYYADSVKGRFTISRHNSKNTLFLQMNSLRAEDTAVYYCARDRPITGTTLDVWGQGTTVTVSS
VL: DIQMTQSPSSLFASVGDRVTITCRASQSISSYLNWYQQKPGKAPKLLIYAASSLQSGVPSRFSGSGSGTDFTLTISSLQPEDFAFYYCQQTYSTPPITFGQGTRLEIKR
B13: mAb10984 (antibody, V domains shown)
VH: EVQLVESGGGLVQPGGSLRLSCAASGLTVNRNYMSWVRQAPGKGLEWVSLIYSGGSTYYADSVKGRFTISRDNSKNTLYLQMNSLRLEDTAVYYCARGELGIPYGMDVWGQGTTVTVSS
VL: QSVLTQPPSVSAAPGQKVTISCSGSSSNIGNNYVSWYQQLPGTAPKLLIYDNNKRPSGIPDRFSGSKSGTSATLGITGLQTGDEADYYCGTWDSSLSAGVFGGGTKLTVLG
B14: mAb10982 (antibody, V domains shown)
VH: EVQLVESGGGLVQPGGSLRLSCAASGLTVSSNYMSWVRQAPGKGLEWVSVIYSGGTTYYADSVKGRFTISRHNSKNTLSLQMNSLRAEDTAVYYCARGEGANYYGMDVWGQGTTVTVSS
VL: QSVLTQPPSVSGAPGQRVTISCTGSSSNIGTGYDVHWYQQLPGTAPKLLIYGNSNRPSGVPDRFSGSKSGTSASLAITGLQAEDEADYYCQSYDSSLSGYVVFGGGTKLTVLG
B15: mAb10985 (antibody, V domains shown)
VH: EVQLVESGGGLVQPGRSLRLSCAASGFTFDDYAMHWVRQAPGKGLEWVSGISWNRGSIGYADSVKGRFTISRDNAKNSLYLQMSSLRAEDTALYYCAKDGERWDSVVVPSARNGMDVWGQGTTVTVSS
VL: QSVLTQPPSVSGAPGQRVTISCTGSSSNIGAGYDVHWYQQLPGTAPKLLIYGNSNRPSGVPDRFSGSKSGTSASLAITGLQAEDEADYYCQSYDSSLSGSYVFGTGTKVTVLG
B16: mAb10986 (antibody, V domains shown)
VH: EVQLVESGGGLVQPGGSLRLSCAASEFTVSSNYMSWVRQAPGKGLEWVSVIYSGGSTFYADSVKGRFTISRDNSKNTLYLQMNSLRAEDTAVYYCARALPYGDLHFDYWGQGTLVTVSS
VL: QSVLTQPPSVSGAPGQRVTISCTGSSSNIGTGYDVHWYQQLPGTAPKLLIYGNTNRPSGVPDRFSGSKSGTSASLAITGLQAEDEADYYCQSYDSSLSDSYVFGTGTKVTVLG
B17: mAb10989 (antibody, V domains shown)
VH: QVQLVQSGAEVKKPGASVKVSCKASGYIFTGYYMHWVRQAPGQGLEWMGWINPNSGGANYAQKFQGRVTLTRDTSITTVYMELSRLRFDDTAVYYCARGSRYDWNQNNWFDPWGQGTLVTVSS
VL: QSALTQPASVSGSPGQSITISCTGTSSDVGTYNYVSWYQQHPGKAPKLMIFDVSNRPSGVSDRFSGSKSGNTASLTISGLQAEDEADYYCSSFTTSSTVVFGGGTKLTVLG
B18: mAb10966 (antibody, V domains shown)
VH: EVQLVESGGGLVQPGGSLRLSCAASGLTVSSNYMSWVRQAPGKGLEWVSVIYSGGSTFYADSVKGRFTISRDNSKNTLYLQMNSLRPEDTAVYYCAREGRIAATGYGMDVWGQGTTVTVSS
VL: not shown
B19: mAb10957 (antibody, V domains shown)
VH: EVQLVESGGGLVQPGGSLRLSCAASGVTVSSNYMSWVRQAPGKGLEWVSVIYSGGSTFYADSVKGRFTISRDNSKNTLFLQMNSLRIEDTAVYYCARDLGPYGMDVWGQGTTVTVSS
VL: DIQLTQSPSFLSASVGDRVTITCRASQGISSYLAWYQQKPGKAPKLLIYAASTLQSGVPSRFSGSGSGTQFILTISSLQPEDFATYYCQQLNSYPGFTFGPGTKVDIKR
B20: mAb10971 (antibody, V domains shown)
VH: EVQLVESGGGLIQPGGSLRLSCAASGVTVSSNYMSWVRQAPGKGLEWVSVIYSGGSTFYSDSVKGRFSISRDNSKNTLYLQMNSLRAEDTAVYYCARDLYYYGMDVWGQGTTVTVSS
VL: DIQLTQSPSFLSASVGDRVTITCRASQGISTYLAWYQQKPGKAPKLLIYAASTLQSGVPSRFSGSGSGTEFTLTISSLQPEDFATYYCQQLDSYPGLTFGGGTKVEIKR
B21: mAb10965 (antibody, V domains shown)
VH: EVQLVESGGGLIQPGGSLRLSCAASVFTVSYNYMSWVRQAPGKGLEWVSVIYSGGSTYYADSVKGRFTISRDNSKNTLYLQMNSLRAEDTAVYYCARALPGWGGSFEYFDYWGQGTLVTVSS
VL: not shown

Usually Kd stands for the constant that tells how readily two partners part at equilibrium. Read a low Kd as a tighter complex. For orientation: koff means the first-order rate constant of dissociation. The term kon denotes a measure of how fast the partners come together. Read a high kon as faster complex formation. As usually defined, the t½ is the time needed for the level to fall by half in the phase considered. The low end stands for rapid decline, the high end for slow decline.

This assay deals with SARS-COV-2 RBD extracellular domain expressed with a C-terminal mouse IgG2a (SARS-CoV-2). As to the kind of experiment: SPR Biacore, mAb captured via anti-hFc, 25 C. (In general: In SPR one partner is held on a chip, and binding of the other changes the refractive index at the surface.)
Regarding B1, the dissociation constant Kd is 0.0794 nM, the koff worked out at 0.000107 s⁻¹, the kon was found to be 1.35e+06 M⁻¹ s⁻¹ and the “t½” value worked out at 108 min.
Take B2: the Kd stood at 0.0771 nM and the “t½” value was determined as 125 min.
In the case of B3, binding was characterised by a dissociation constant (Kd) of 0.0203 nM and the “t½” value was determined as 856 min.
The corresponding values for B4 are 0.0702 nM and 683 min.
In the case of B5, the Kd came out at 0.0203 nM and the “t½” value is 242 min.
On to B6, for which the Kd is 0.0304 nM, the koff came to 5.4e-05 s⁻¹, the kon is 1.78e+06 M⁻¹ s⁻¹ and the “t½” value was 214 min.
On to B7, for which the Kd came to 0.216 nM and the “t½” value was found to be 116 min.
Take B8: binding was characterised by a dissociation constant (Kd) of 0.00397 nM and the “t½” value is 313 min.
As to B9, the Kd stood at 0.0283 nM, the koff came out at 5.04e-05 s⁻¹, the kon turned out to be 1.78e+06 M⁻¹ s⁻¹ and the “t½” value was 229 min.
For B10, binding was put at a Kd of 0.121 nM, the koff was 8.74e-05 s⁻¹, the kon is 722000 M⁻¹ s⁻¹ and the “t½” value turned out to be 132 min.
Turning to B11, the affinity, expressed as Kd, was 0.0887 nM and the “t½” value was found to be 88.8 min.
Turning to B12, the Kd amounted to 2.44 nM, the koff was found to be 0.00358 s⁻¹, the kon worked out at 1.47e+06 M⁻¹ s⁻¹ and the “t½” value stood at 3.2 min.
As to B13, the affinity, expressed as Kd, was 0.0286 nM and the “t½” value was 291 min.
Take B14: the Kd was 0.0886 nM, the koff stood at 8.06e-05 s⁻¹, the kon is 910000 M⁻¹ s⁻¹ and the “t½” value was 143 min.
With B15, the affinity, expressed as Kd, was 0.0105 nM and the “t½” value came to 136 min.
In the same order, the values of B16 are 0.00888 nM and 481 min.
Consider B17, for which binding was characterised by a dissociation constant (Kd) of 0.00895 nM and the “t½” value amounted to 120 min.
With B18, binding was characterised by a dissociation constant (Kd) of 0.0224 nM and the “t½” value stood at 343 min.
For the molecule B19, binding was put at a Kd of 0.0327 nM and the “t½” value was 345 min.
As for B20, the affinity, expressed as Kd, was 0.0292 nM; the koff worked out at 4.09e-05 s⁻¹; the kon amounted to 1.4e+06 M⁻¹ s⁻¹; the “t½” value was 282 min.
Consider B21, for which binding was characterised by a dissociation constant (Kd) of 0.225 nM and the “t½” value stood at 74 min.
